Reference: article PMC4163662

How the values were obtained:
[1] = biological target: GST-Shroom3 SD2 R1838A (mouse) (UniProt Q9QXN0); assay: pull-down; GST-Shroom3 SD2 variants bound to glutathione beads, His-tagged hRock1 SBD soluble; 2 hours at room temperature; washed with NETN; SDS-PAGE, Coomassie Blue
[2] = biological target: GST-Shroom3 SD2 R1838C (mouse) (UniProt Q9QXN0); assay: as above

UniProt Q9QXN0, sequence (Q9QXN0 1562-1986, stated change not applied): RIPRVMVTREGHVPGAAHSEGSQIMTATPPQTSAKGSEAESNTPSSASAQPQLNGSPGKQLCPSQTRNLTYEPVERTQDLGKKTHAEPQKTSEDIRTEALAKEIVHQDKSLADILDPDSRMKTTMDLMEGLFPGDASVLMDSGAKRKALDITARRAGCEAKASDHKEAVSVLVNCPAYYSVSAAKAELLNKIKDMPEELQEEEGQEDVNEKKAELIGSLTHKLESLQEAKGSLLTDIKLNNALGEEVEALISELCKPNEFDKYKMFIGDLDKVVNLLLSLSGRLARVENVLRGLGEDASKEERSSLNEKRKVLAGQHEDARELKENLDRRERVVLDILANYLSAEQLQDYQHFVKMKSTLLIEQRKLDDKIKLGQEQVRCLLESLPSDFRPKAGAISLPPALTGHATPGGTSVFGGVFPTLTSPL

“His-tagged human Rock1 Shroom-Binding domain (SBD), amino acids 707-946 (from UniProt Q13464 707-946) (domain or fragment)” gave a percent reduction in binding relative to wild type [1] of 45% and a percent reduction in binding relative to wild type [2] of 95%.
